Assay results as given in article PMC7141810, “UBP12 and UBP13 negatively regulate the activity of the ubiquitin-dependent peptidases DA1, DAR1 and DAR2” (eLife, 2020).
Each block holds one binder with its values, some of them ahead of it.

Columns and labels:
[1] = target: T1, GST-UBP12 (Arabidopsis thaliana, UniProt Q9FPT1 1-1116); assay: pull-down; in vitro; equal amounts of free GST, GST-UBP12 or GST-UBP13 as baits incubated with HIS-MBP-DA1, -DAR1 or -DAR2; purification with anti-GST beads; Western blot; settings: both partners purified
T1 construct: UBP12, Arabidopsis thaliana, AT5G06600; called full-length; also called full-length GST-UBP12; source: E. coli BL21 (DE3), purified (Glutathione Sepharose 4B beads)
T1 sequence (looked up): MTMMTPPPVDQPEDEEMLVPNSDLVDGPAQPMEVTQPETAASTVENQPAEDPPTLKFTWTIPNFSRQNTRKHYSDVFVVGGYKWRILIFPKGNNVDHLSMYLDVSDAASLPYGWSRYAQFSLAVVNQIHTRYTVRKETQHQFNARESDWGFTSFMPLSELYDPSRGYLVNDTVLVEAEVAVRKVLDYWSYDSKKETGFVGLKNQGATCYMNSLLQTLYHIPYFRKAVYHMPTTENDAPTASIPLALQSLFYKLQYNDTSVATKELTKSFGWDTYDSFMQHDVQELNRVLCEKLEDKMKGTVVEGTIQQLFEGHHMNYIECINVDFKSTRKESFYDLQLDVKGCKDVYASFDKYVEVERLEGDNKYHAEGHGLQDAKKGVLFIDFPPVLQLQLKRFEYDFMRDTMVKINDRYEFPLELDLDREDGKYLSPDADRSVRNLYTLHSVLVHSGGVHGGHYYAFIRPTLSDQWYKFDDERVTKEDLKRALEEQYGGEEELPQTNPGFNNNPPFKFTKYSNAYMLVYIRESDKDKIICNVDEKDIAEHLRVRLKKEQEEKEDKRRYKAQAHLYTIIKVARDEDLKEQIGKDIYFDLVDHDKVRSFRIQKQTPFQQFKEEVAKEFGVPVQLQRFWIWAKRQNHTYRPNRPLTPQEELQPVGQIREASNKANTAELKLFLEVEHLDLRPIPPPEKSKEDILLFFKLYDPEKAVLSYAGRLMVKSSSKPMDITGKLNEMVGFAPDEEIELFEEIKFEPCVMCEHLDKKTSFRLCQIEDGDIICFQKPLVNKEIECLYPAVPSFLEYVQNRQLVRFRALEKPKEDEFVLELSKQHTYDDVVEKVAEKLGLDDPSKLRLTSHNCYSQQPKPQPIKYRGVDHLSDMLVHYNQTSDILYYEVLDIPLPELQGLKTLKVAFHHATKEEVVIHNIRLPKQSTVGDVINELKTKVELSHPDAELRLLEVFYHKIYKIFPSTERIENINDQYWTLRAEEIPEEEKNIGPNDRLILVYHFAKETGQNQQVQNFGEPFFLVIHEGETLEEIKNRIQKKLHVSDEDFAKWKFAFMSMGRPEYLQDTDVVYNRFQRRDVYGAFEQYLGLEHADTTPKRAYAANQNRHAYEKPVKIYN

[2] = target: T2, GST-UBP13 (Arabidopsis thaliana, UniProt Q84WU2 1-1115); assay: as above; settings: both partners purified
T2 construct: UBP13, Arabidopsis thaliana, AT3G11910; called full-length; also called full-length GST-UBP13; source: E. coli BL21 (DE3), purified (Glutathione Sepharose 4B beads)
T2 sequence (looked up): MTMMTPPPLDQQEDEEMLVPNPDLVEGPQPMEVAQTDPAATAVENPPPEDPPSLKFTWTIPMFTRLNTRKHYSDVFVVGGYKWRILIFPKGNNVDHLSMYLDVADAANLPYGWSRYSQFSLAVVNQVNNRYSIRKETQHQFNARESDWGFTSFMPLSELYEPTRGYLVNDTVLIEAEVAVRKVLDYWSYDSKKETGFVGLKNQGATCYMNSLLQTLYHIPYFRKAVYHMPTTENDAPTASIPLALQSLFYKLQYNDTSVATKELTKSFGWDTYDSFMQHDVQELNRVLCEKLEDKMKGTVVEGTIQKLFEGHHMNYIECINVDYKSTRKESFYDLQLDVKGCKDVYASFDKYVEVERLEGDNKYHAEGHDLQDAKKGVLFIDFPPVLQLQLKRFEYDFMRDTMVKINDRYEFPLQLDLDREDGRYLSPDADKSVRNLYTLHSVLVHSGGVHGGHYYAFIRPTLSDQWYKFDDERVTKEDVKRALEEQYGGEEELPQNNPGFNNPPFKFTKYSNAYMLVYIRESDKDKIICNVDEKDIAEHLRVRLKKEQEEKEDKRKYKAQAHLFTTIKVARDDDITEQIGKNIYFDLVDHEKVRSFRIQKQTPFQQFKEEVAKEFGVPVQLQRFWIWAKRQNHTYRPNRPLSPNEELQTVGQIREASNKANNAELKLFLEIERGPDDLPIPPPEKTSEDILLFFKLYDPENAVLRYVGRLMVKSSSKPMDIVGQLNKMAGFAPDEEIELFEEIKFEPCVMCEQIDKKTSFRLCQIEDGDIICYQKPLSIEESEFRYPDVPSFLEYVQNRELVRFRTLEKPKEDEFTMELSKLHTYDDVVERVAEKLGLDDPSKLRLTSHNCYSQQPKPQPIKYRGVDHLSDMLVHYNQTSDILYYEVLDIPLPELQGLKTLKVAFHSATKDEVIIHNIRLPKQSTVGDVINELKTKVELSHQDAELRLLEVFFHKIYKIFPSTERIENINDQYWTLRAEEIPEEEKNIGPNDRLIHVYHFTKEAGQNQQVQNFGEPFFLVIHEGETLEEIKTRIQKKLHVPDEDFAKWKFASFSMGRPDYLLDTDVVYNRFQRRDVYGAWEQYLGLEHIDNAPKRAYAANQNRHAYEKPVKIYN

- binding result [1]: binds
- binding result [2]: binds
B1: HIS-MBP-DA1 (natural protein, Arabidopsis thaliana, UniProt P0C7Q8 1-532, looked up)
chain: MGWFNKIFKGSNQRLRVGNNKHNHNVYYDNYPTASHDDEPSAADTDADNDEPHHTQEPSTSEDNTSNDQENEDIDRAIALSLLEENQEQTSISGKYSMPVDEDEQLARALQESMVVGNSPRHKSGSTYDNGNAYGAGDLYGNGHMYGGGNVYANGDIYYPRPITFQMDFRICAGCNMEIGHGRFLNCLNSLWHPECFRCYGCSQPISEYEFSTSGNYPFHKACYRERYHPKCDVCSHFIPTNHAGLIEYRAHPFWVQKYCPSHEHDATPRCCSCERMEPRNTRYVELNDGRKLCLECLDSAVMDTMQCQPLYLQIQNFYEGLNMKVEQEVPLLLVERQALNEAREGEKNGHYHMPETRGLCLSEEQTVSTVRKRSKHGTGKWAGNITEPYKLTRQCEVTAILILFGLPRLLTGSILAHEMMHAWMRLKGFRTLSQDVEEGICQVMAHKWLDAELAAGSTNSNAASSSSSSQGLKKGPRSQYERKLGEFFKHQIESDASPVYGDGFRAGRLAVHKYGLRKTLEHIQMTGRFPV
notes: DA1, Arabidopsis thaliana, AT1G19270; source: E. coli BL21 (DE3), purified (NI-NTA agarose beads)

- binding result [1]: binds
- binding result [2]: binds
B2: HIS-MBP-DAR1 (natural protein, Arabidopsis thaliana, UniProt Q8W4F0 1-553, looked up)
chain: MGWLTKILKGSSHKFSDGQCNGRYREDRNLEGPRYSAEGSDFDKEEIECAIALSLSEQEHVIPQDDKGKKIIEYKSETEEDDDDDEDEDEEYMRAQLEAAEEEERRVAQAQIEEEEKRRAEAQLEETEKLLAKARLEEEEMRRSKAQLEEDELLAKALQESMNVGSPPRYDPGNILQPYPFLIPSSHRICVGCQAEIGHGRFLSCMGGVWHPECFCCNACDKPIIDYEFSMSGNRPYHKLCYKEQHHPKCDVCHNFIPTNPAGLIEYRAHPFWMQKYCPSHERDGTPRCCSCERMEPKDTKYLILDDGRKLCLECLDSAIMDTHECQPLYLEIREFYEGLHMKVEQQIPMLLVERSALNEAMEGEKHGHHHLPETRGLCLSEEQTVTTVLRRPRIGAGYKLIDMITEPCRLIRRCEVTAILILYGLPRLLTGSILAHEMMHAWLRLNGYPNLRPEVEEGICQVLAHMWLESETYAGSTLVDIASSSSSAVVSASSKKGERSDFEKKLGEFFKHQIESDSSSAYGDGFRQGNQAVLKHGLRRTLDHIRLTGTFP
notes: DAR1, Arabidopsis thaliana, AT4G36860; source: E. coli BL21 (DE3), purified (NI-NTA agarose beads)

- binding result [1]: binds
- binding result [2]: binds
B3: HIS-MBP-DAR2 (natural protein, Arabidopsis thaliana, UniProt Q0WSN2 1-528, looked up)
chain: MDSSSSSSSSSPSSSYGVARVSHISNPCIFGEVGSSSSSTYRDKKWKLMKWVSKLFKSGSNGGGSGAHTNHHPPQFQEDENMVFPLPPSSLDDRSRGARDKEELDRSISLSLADNTKRPHGYGWSMDNNRDFPRPFHGGLNPSSFIPPYEPSYQYRRRQRICGGCNSDIGSGNYLGCMGTFFHPECFRCHSCGYAITEHEFSLSGTKPYHKLCFKELTHPKCEVCHHFIPTNDAGLIEYRCHPFWNQKYCPSHEYDKTARCCSCERLESWDVRYYTLEDGRSLCLECMETAITDTGECQPLYHAIRDYYEGMYMKLDQQIPMLLVQREALNDAIVGEKNGYHHMPETRGLCLSEEQTVTSVLRRPRLGAHRLVGMRTQPQRLTRKCEVTAILVLYGLPRLLTGAILAHELMHGWLRLNGFRNLNPEVEEGICQVLSYMWLESEVLSDPSTRNLPSTSSVATSSSSSFSNKKGGKSNVEKKLGEFFKHQIAHDASPAYGGGFRAANAAACKYGLRRTLDHIRLTGTFPL
notes: DAR2, Arabidopsis thaliana, AT2G39830; source: E. coli BL21 (DE3), purified (NI-NTA agarose beads)
